In article PMC10791742 (2024):

What was measured:
[1] = target: T1, myotoxin II from Bothrops asper (Bothrops asper, UniProt P24605 17-137, biotin (EZ-Link NHS-PEG4-Biotin, molar ratio 1:1.5 toxin:biotin)); assay: BLI
[2] = target: T1, myotoxin II from Bothrops asper; assay: BLI; remark: listed apart in the source

T1 sequence (P24605 17-137): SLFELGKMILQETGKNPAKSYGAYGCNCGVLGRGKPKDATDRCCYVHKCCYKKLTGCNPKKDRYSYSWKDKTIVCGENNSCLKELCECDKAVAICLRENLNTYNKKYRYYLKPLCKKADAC

B1: G08(LALA + YTE) human IgG1 (antibody, V domains shown)
VH: EVQLVESGGGVVQPGRSLRLSCAASGFTFSSYGMHWVRQAPGKGLEWVAVISYDGSNKYYADSVKGRFTISRDNSKNTLYLQMNSLRAEDTAVYYCARTNYDSGDAFDIWGQGTLVTVSS
VL: NFMLTQPHSVSESPGKTVTISCTRSSGSIASNYVQWYQQRPGSSPTTVIYEDNQRPSGVPDRFSGSIDSSSNSASLTISGLKTEDEADYYCQSYDSSTVVFGGGTKLTVL
Q: With B1 as the binder, how does the koff [1] read?
A: 0.00283 s⁻¹

Q: What about the Kd [2] of the same binder?
A: 9.41 nM
